According to article PMC7221075:

Columns and labels:
[1] = biological target: TMH-LOV2 V416L membrane anchor (Escherichia coli | Avena sativa)
[2] = biological target: TMH-LOV2 V416L membrane anchor (Escherichia coli | Avena sativa); remark: listed apart in the source
[3] = biological target: TMH-iLID membrane anchor (transmembrane helix of E. coli TatA, Val-Leu, Flag peptide, iLID) (Escherichia coli)

Substance	secretion efficiency of heterologous cargo expressed from plasmid (YopE1-53-NanoLuc-FLAG), LITESEC-act3, in light [1] [%]	light/dark secretion ratio (L/D ratio) of native T3SS substrates, in vitro secretion assay, LITESEC-act2 (anchor from pBAD) [2]	light/dark secretion ratio (L/D ratio) of native T3SS substrates, in vitro secretion assay, LITESEC-act3 (anchor from pACYC184) [2]	light/dark secretion ratio (L/D ratio) of native T3SS substrates, in vitro secretion assay, LITESEC-supp2 (anchor from pACYC184) [3]
Zdk1-SctQ bait fusion protein	50	2.16	4.18	
SspB_Nano-SctQ bait fusion protein				0.26
